# Measurements: paper PMC10773898, “Evidence of DISC1 as an arsenic binding protein and implications regarding its role as a translational activator” (Frontiers in Molecular Biosciences, 2023)
# B1: DISC1 C-terminal construct (598-854), WT (domain or fragment, human, UniProt Q9NRI5-1 598-854, looked up)
# chain: GNHFFTAKDLTEEIRSLTSEREGLEGLLSKLLVLSSRNVKKLGSVKEDYNRLRREVEHQETAYETSVKENTMKYMETLKNKLCSCKCPLLGKVWEADLEACRLLIQSLQLQEARGSLSVEDERQMDDLEGAAPPIPPRLHSEDKRKTPLKVLEEFKTHLIPSLHCAGGEQKEESYILSAELGEKCEDIGKKLLYLEDQLHTAIHSHDEDLIQSLRRELQMVKETLQAMILQLQPAKEAGEREAAASCMTAGVHEAQA
# notes: Disrupted-in-schizophrenia-1 (DISC1), human, residues 598-854, with W602F and W752F so that W691 is the single tryptophan; In pET28b(+) as His-tag fusion; also called DISC1 598-854; C-terminal WT construct; source: E. coli BL21 (DE3), purified (Ni-NTA, SEC)
# B2: DISC1 598-854 C680S/C682S/C684S/C698S/C762S/C782S/C844S (domain or fragment, human, UniProt Q9NRI5-1 598-854, looked up)
# chain: GNHFFTAKDLTEEIRSLTSEREGLEGLLSKLLVLSSRNVKKLGSVKEDYNRLRREVEHQETAYETSVKENTMKYMETLKNKLSSSKSPLLGKVWEADLEASRLLIQSLQLQEARGSLSVEDERQMDDLEGAAPPIPPRLHSEDKRKTPLKVLEEFKTHLIPSLHSAGGEQKEESYILSAELGEKSEDIGKKLLYLEDQLHTAIHSHDEDLIQSLRRELQMVKETLQAMILQLQPAKEAGEREAAASSMTAGVHEAQA
# notes: DISC1, human, residues 598-854, all cysteines mutated to serine; also called C680S/C6802S/C684S*; C680S/C684S/C682S*; source: E. coli BL21 (DE3), purified (Ni-NTA, SEC)
# B3: DISC1 598-854 C680S/C682S/C698S/C762S/C782S/C844S (domain or fragment, human, UniProt Q9NRI5-1 598-854, looked up)
# chain: GNHFFTAKDLTEEIRSLTSEREGLEGLLSKLLVLSSRNVKKLGSVKEDYNRLRREVEHQETAYETSVKENTMKYMETLKNKLSSSKCPLLGKVWEADLEASRLLIQSLQLQEARGSLSVEDERQMDDLEGAAPPIPPRLHSEDKRKTPLKVLEEFKTHLIPSLHSAGGEQKEESYILSAELGEKSEDIGKKLLYLEDQLHTAIHSHDEDLIQSLRRELQMVKETLQAMILQLQPAKEAGEREAAASSMTAGVHEAQA
# notes: DISC1, human, residues 598-854; source: E. coli BL21 (DE3), purified (Ni-NTA, SEC)
# B4: DISC1 598-854 (C698S/C762S/C782S/C844S) (domain or fragment, human, UniProt Q9NRI5-1 598-854, looked up)
# chain: GNHFFTAKDLTEEIRSLTSEREGLEGLLSKLLVLSSRNVKKLGSVKEDYNRLRREVEHQETAYETSVKENTMKYMETLKNKLCSCKCPLLGKVWEADLEASRLLIQSLQLQEARGSLSVEDERQMDDLEGAAPPIPPRLHSEDKRKTPLKVLEEFKTHLIPSLHSAGGEQKEESYILSAELGEKSEDIGKKLLYLEDQLHTAIHSHDEDLIQSLRRELQMVKETLQAMILQLQPAKEAGEREAAASSMTAGVHEAQA
# notes: DISC1, human, residues 598-854; also called WT*; pseudo-WT variant; source: E. coli BL21 (DE3), purified (Ni-NTA, SEC)
# B5: DISC1 598-854 C680S/C684S/C698S/C762S/C782S/C844S (domain or fragment, human, UniProt Q9NRI5-1 598-854, looked up)
# chain: GNHFFTAKDLTEEIRSLTSEREGLEGLLSKLLVLSSRNVKKLGSVKEDYNRLRREVEHQETAYETSVKENTMKYMETLKNKLSSCKSPLLGKVWEADLEASRLLIQSLQLQEARGSLSVEDERQMDDLEGAAPPIPPRLHSEDKRKTPLKVLEEFKTHLIPSLHSAGGEQKEESYILSAELGEKSEDIGKKLLYLEDQLHTAIHSHDEDLIQSLRRELQMVKETLQAMILQLQPAKEAGEREAAASSMTAGVHEAQA
# notes: as for B3
# B6: DISC1 598-854 C682S/C684S/C698S/C762S/C782S/C844S (domain or fragment, human, UniProt Q9NRI5-1 598-854, looked up)
# chain: GNHFFTAKDLTEEIRSLTSEREGLEGLLSKLLVLSSRNVKKLGSVKEDYNRLRREVEHQETAYETSVKENTMKYMETLKNKLCSSKSPLLGKVWEADLEASRLLIQSLQLQEARGSLSVEDERQMDDLEGAAPPIPPRLHSEDKRKTPLKVLEEFKTHLIPSLHSAGGEQKEESYILSAELGEKSEDIGKKLLYLEDQLHTAIHSHDEDLIQSLRRELQMVKETLQAMILQLQPAKEAGEREAAASSMTAGVHEAQA
# notes: as for B3
# B7: DISC1 598-854 C682S/C698S/C762S/C782S/C844S (domain or fragment, human, UniProt Q9NRI5-1 598-854, looked up)
# chain: GNHFFTAKDLTEEIRSLTSEREGLEGLLSKLLVLSSRNVKKLGSVKEDYNRLRREVEHQETAYETSVKENTMKYMETLKNKLCSSKCPLLGKVWEADLEASRLLIQSLQLQEARGSLSVEDERQMDDLEGAAPPIPPRLHSEDKRKTPLKVLEEFKTHLIPSLHSAGGEQKEESYILSAELGEKSEDIGKKLLYLEDQLHTAIHSHDEDLIQSLRRELQMVKETLQAMILQLQPAKEAGEREAAASSMTAGVHEAQA
# notes: as for B3
# B8: DISC1 598-854 C680S/C698S/C762S/C782S/C844S (domain or fragment, human, UniProt Q9NRI5-1 598-854, looked up)
# chain: GNHFFTAKDLTEEIRSLTSEREGLEGLLSKLLVLSSRNVKKLGSVKEDYNRLRREVEHQETAYETSVKENTMKYMETLKNKLSSCKCPLLGKVWEADLEASRLLIQSLQLQEARGSLSVEDERQMDDLEGAAPPIPPRLHSEDKRKTPLKVLEEFKTHLIPSLHSAGGEQKEESYILSAELGEKSEDIGKKLLYLEDQLHTAIHSHDEDLIQSLRRELQMVKETLQAMILQLQPAKEAGEREAAASSMTAGVHEAQA
# notes: as for B3
# B9: DISC1 598-854 C684S/C698S/C762S/C782S/C844S (domain or fragment, human, UniProt Q9NRI5-1 598-854, looked up)
# chain: GNHFFTAKDLTEEIRSLTSEREGLEGLLSKLLVLSSRNVKKLGSVKEDYNRLRREVEHQETAYETSVKENTMKYMETLKNKLCSCKSPLLGKVWEADLEASRLLIQSLQLQEARGSLSVEDERQMDDLEGAAPPIPPRLHSEDKRKTPLKVLEEFKTHLIPSLHSAGGEQKEESYILSAELGEKSEDIGKKLLYLEDQLHTAIHSHDEDLIQSLRRELQMVKETLQAMILQLQPAKEAGEREAAASSMTAGVHEAQA
# notes: as for B3
# Molecular target: the molecule itself
# Assay: SEC; HiLoad 26/600 Superdex 200 pg; 50 mM Tris-HCl, 10 mM NaCl, pH 8.0; self-association of the purified construct
Protein,stoichiometry N,binding result
B1,4,
B2,,binds
B3,,binds
B4,,binds
B5,,binds
B6,,binds
B7,,binds
B8,,binds
B9,,binds
